B1: CPEB3 Ribozyme (parent)
chain: GGGGGCCACAGCAGAAGCGUUCACGUCGCGGCCCCUGUCAGAUUCUGGUGAAUCUGCGAAUUCUGCUGU

In the data set the parent is B1. Put plainly: self-cleavage, relative activity (ratio to wild type); higher = more cleavage; co-transcriptional.
For the variant GGGGGCCACAGCAGAAGCGUUCACGUCGCGGCCCCUGUCAGAUUCUGGUUAAUCUGCGAAUUAUGCUGU [G50U C63A], the self-cleavage is 0.874.
With GGGGGCCACAGCAGAAGCGUUCACGUCGCGGCCCCUGUCAGAUUCUGGUUAAUCUGCGAAUUUUGCUGU [G50U C63U] the figure was 0.974; with GGGGGCCACAGCAGAAGCGUUCACGUCGCGGCCCCUGUCAGAUUCUGGUUAAUCUGCGAUUUCUGCUGU [G50U A60U], 0.515; with GGGGGCCACAGCAGAAGCGUUCACGUCGCGGCCCCUGUCAGAUUCUGGUCAAUCUGCGAAUUCUGAUGU [G50C C66A], 0.728.
For the variant GGGGGCCACAGCAGAAGCGUUCACGUCGCGGCCCCUGUCAGAUUCUGGUCAAUCUGCGAAUUCUGGUGU [G50C C66G], the self-cleavage was 0.853.
Consider GGGGGCCACAGCAGAAGCGUUCACGUCGCGGCCCCUGUCAGAUUCUGGUCAAUCUGCGAAUUCUGUUGU [G50C C66U], for which the self-cleavage is 0.981.
GGGGGCCACAGCAGAAGCGUUCACGUCGCGGCCCCUGUCAGAUUCUGGUUAAUCUGAGAAUUCUGCUGU [G50U C57A]: the self-cleavage amounted to 0.355.
For GGGGGCCACAGCAGAAGCGUUCACGUCGCGGCCCCUGUCAGAUUCUGGUUAAUCUGUGAAUUCUGCUGU [G50U C57U], the self-cleavage is 0.366.
Take GGGGGCCACAGCAGAAGCGUUCACGUCGCGGCCCCUGUCAGAUUCUGGUUAAUCUGGGAAUUCUGCUGU [G50U C57G]: the self-cleavage was 0.264.
Regarding GGGGGCCACAGCAGAAGCGUUCACGUCGCGGCCCCUGUCAGAUUCUGGUUAAUCUGCUAAUUCUGCUGU [G50U G58U], the self-cleavage was 1.03.
With GGGGGCCACAGCAGAAGCGUUCACGUCGCGGCCCCUGUCAGAUUCUGGUUAAUCUGCAAAUUCUGCUGU [G50U G58A] the figure was 0.948.
With GGGGGCCACAGCAGAAGCGUUCACGUCGCGGCCCCUGUCAGAUUCUGGUCACUCUGCGAAUUCUGCUGU [G50C A52C] the figure was 0.946; with GGGGGCCACAGCAGAAGCGUUCACGUCGCGGCCCCUGUCAGAUUCUGGUCAGUCUGCGAAUUCUGCUGU [G50C A52G], 0.985; with GGGGGCCACAGCAGAAGCGUUCACGUCGCGGCCCCUGUCAGAUUCUGGUCAAUCUGCGAAUUCUCCUGU [G50C G65C], 0.585.
As to GGGGGCCACAGCAGAAGCGUUCACGUCGCGGCCCCUGUCAGAUUCUGGUCAAUCUGCGAAUUCUACUGU [G50C G65A], the self-cleavage turned out to be 0.885.
With GGGGGCCACAGCAGAAGCGUUCACGUCGCGGCCCCUGUCAGAUUCUGGUUAAUCUGCGAAUUCUACUGU [G50U G65A] the figure was 0.953; with GGGGGCCACAGCAGAAGCGUUCACGUCGCGGCCCCUGUCAGAUUCUGGUCAAUCCGCGAAUUCUGCUGU [G50C U55C], 0.486; with GGGGGCCACAGCAGAAGCGUUCACGUCGCGGCCCCUGUCAGAUUCUGGUCAAUCAGCGAAUUCUGCUGU [G50C U55A], 0.794.
The value for GGGGGCCACAGCAGAAGCGUUCACGUCGCGGCCCCUGUCAGAUUCUGGUCAAUCGGCGAAUUCUGCUGU [G50C U55G] was 0.685.
The value for GGGGGCCACAGCAGAAGCGUUCACGUCGCGGCCCCUGUCAGAUUCUGGUCAAUGUGCGAAUUCUGCUGU [G50C C54G] was 0.654; that for GGGGGCCACAGCAGAAGCGUUCACGUCGCGGCCCCUGUCAGAUUCUGGUCAAUUUGCGAAUUCUGCUGU [G50C C54U] was 0.921; that for GGGGGCCACAGCAGAAGCGUUCACGUCGCGGCCCCUGUCAGAUUCUGGUUUAUCUGCGAAUUCUGCUGU [G50U A51U] was 0.995.
As to GGGGGCCACAGCAGAAGCGUUCACGUCGCGGCCCCUGUCAGAUUCUGGUUGAUCUGCGAAUUCUGCUGU [G50U A51G], the self-cleavage came to 1.01.
With GGGGGCCACAGCAGAAGCGUUCACGUCGCGGCCCCUGUCAGAUUCUGGUCAACCUGCGAAUUCUGCUGU [G50C U53C], the self-cleavage worked out at 0.866.
Consider GGGGGCCACAGCAGAAGCGUUCACGUCGCGGCCCCUGUCAGAUUCUGGUCAAGCUGCGAAUUCUGCUGU [G50C U53G], for which the self-cleavage worked out at 0.654.
Take GGGGGCCACAGCAGAAGCGUUCACGUCGCGGCCCCUGUCAGAUUCUGGUCAAUCUGAGAAUUCUGCUGU [G50C C57A]: the self-cleavage stood at 0.366.
The value for GGGGGCCACAGCAGAAGCGUUCACGUCGCGGCCCCUGUCAGAUUCUGGUCAAUCUGUGAAUUCUGCUGU [G50C C57U] was 0.384; that for GGGGGCCACAGCAGAAGCGUUCACGUCGCGGCCCCUGUCAGAUUCUGGUUAAUCUGCGGAUUCUGCUGU [G50U A59G] was 1.04.
The value for GGGGGCCACAGCAGAAGCGUUCACGUCGCGGCCCCUGUCAGAUUCUGGUUAAUCUGCGUAUUCUGCUGU [G50U A59U] was 0.834; that for GGGGGCCACAGCAGAAGCGUUCACGUCGCGGCCCCUGUCAGAUUCUGGUAAAUCUGCGAAUUCUGCAGU [G50A U67A] was 0.989.
With GGGGGCCACAGCAGAAGCGUUCACGUCGCGGCCCCUGUCAGAUUCUGGUCAAUCUGCGAAUUCUGCUGA [G50C U69A] the figure was 0.978; with GGGGGCCACAGCAGAAGCGUUCACGUCGCGGCCCCUGUCAGAUUCUGGUCAAUCUGCGAAUUCUGCUGG [G50C U69G], 1.06.
Regarding GGGGGCCACAGCAGAAGCGUUCACGUCGCGGCCCCUGUCAGAUUCUGGUAAAUCUGCGAAUACUGCUGU [G50A U62A], the self-cleavage is 0.986.
The value for GGGGGCCACAGCAGAAGCGUUCACGUCGCGGCCCCUGUCAGAUUCUGGUAAAUCUGCGAAUCCUGCUGU [G50A U62C] was 0.949; that for GGGGGCCACAGCAGAAGCGUUCACGUCGCGGCCCCUGUCAGAUUCUGGUAAAUCUGCGAAUGCUGCUGU [G50A U62G] was 0.959; that for GGGGGCCACAGCAGAAGCGUUCACGUCGCGGCCCCUGUCAGAUUCUGGUAAACCUGCGAAUUCUGCUGU [G50A U53C] was 0.949.
With GGGGGCCACAGCAGAAGCGUUCACGUCGCGGCCCCUGUCAGAUUCUGGUAAAGCUGCGAAUUCUGCUGU [G50A U53G] the figure was 0.9.
With GGGGGCCACAGCAGAAGCGUUCACGUCGCGGCCCCUGUCAGAUUCUGGUAAAUCUGCGAAAUCUGCUGU [G50A U61A] the figure was 0.862.
As to GGGGGCCACAGCAGAAGCGUUCACGUCGCGGCCCCUGUCAGAUUCUGGUAAAUCUGCGAACUCUGCUGU [G50A U61C], the self-cleavage is 0.799.
